Laboratory results from PMC2757159.

Key:
[1] = target: human copper chaperone for SOD1 (human); test: SEC
[2] = target: human copper chaperone for SOD1 (human); test: SEC; remark: listed apart in the source
[3] = target: yeast copper chaperone for SOD1 (yeast); test: native gel or EMSA
[4] = target: human copper chaperone for SOD1 (human); test: native gel or EMSA

Row | Substance | stoichiometry N [1] | stoichiometry N [2] | stoichiometry N [3] | stoichiometry N [4]
1 | human copper chaperone for SOD1 (natural protein) | 4 | 4 |  | 
2 | human H46R/H48Q copper-zinc superoxide dismutase (SOD1) double mutant (from UniProt P00441 1-154) (enzyme) |  |  | 1 SOD1:CCS | 1 SOD1:CCS
